Experimental data from the supplement of paper PMC10126150.
± gives the standard deviation of the averaged measurements.

System: ATP
Experiment: switch fluorescence ratio, 500 uM ATP over buffer (Cy3 cluster intensity, sum of 5 cycles each) (fold (ratio)); higher = stronger signal-on switching upon ATP binding; sequences stand for … in TCGTCGGCAGCGTCAGATGTGTATAAGAGACAGTTTTTTTTTTTTTTTTTTTTTTTTT…TC
Conditions: aptamer strand: ATP DNA aptamer (quencher-CACCTGGGGGAGTATTGCGGAGGAAGG + anchor), 100 nM annealed; ATP concentration: 500 uM
Procedure, shortened: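 Cy3-labelled switching-strand clusters on a modified Illumina MiSeq flow-cell were annealed to 100 nM quencher-labelled ATP aptamer, imaged in selection buffer, then imaged after 15 min with 500 uM ATP at 22 °C. Five buffer/ATP cycles ran, with NaOH stripping and re-annealing between them. The fluorescence ratio is summed target-cycle over summed buffer-cycle Cy3 intensity per cluster, averaged per switch-domain sequence. Clusters outside 100-1000 RFU were excluded.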
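Further: ATP exposure 15 min at 22 °C before imaging.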

Row | Sequence | switch fluorescence ratio
1 | AAAGCTTGGA | 1.03 ± 0.058
2 | CTCATAGCGC | 1.02 ± 0.035
3 | GATGTTTACT | 1.0047 ± 0.00016
4 | GGTTCAGGGT | 1.02 ± 0.023
5 | TTTGATAAAG | 1.03 ± 0.092
6 | GTTGGAGTTT | 0.975 ± 0.016
7 | GAGCCAGGCA | 0.974 ± 0.042
8 | CGCATATGTA | 1.08 ± 0.033
9 | GTGTGGGAAG | 1.01 ± 0.028
10 | GACGGAGTTG | 1.01 ± 0.026
11 | TAGTTCATGG | 0.991 ± 0.019
12 | CCGAATTATA | 2.04 ± 1.3
13 | CGTGATCAGA | 0.996 ± 0.039
14 | AAGAAGGAGC | 0.974 ± 0.039
15 | GTGGGGCGGT | 0.9832 ± 0.006
16 | ATTGGCACGG | 0.986 ± 0.034
17 | TTACAAGGGC | 1.013 ± 0.0087
18 | TTAGCGGTAT | 1.08 ± 0.087
19 | TATTGGGGAG | 1.13 ± 0.29
20 | TTGTTATTAG | 1.03 ± 0.047
21 | ACTACGATAT | 1.34 ± 0.022
22 | CCCATTATGC | 1.13 ± 0.057
23 | ACTTGTTATG | 0.996 ± 0.028
24 | GTTTTTTGGG | 1 ± 0.042
25 | GATACATGGG | 0.985 ± 0.038

Row | Sequence | switch fluorescence ratio
26 | CAGGGTACGC | 1.04 ± 0.016
27 | TCACAGTTTT | 0.983 ± 0.02
28 | CATTTTATTT | 0.996 ± 0.032
29 | TTAAACGTAG | 1 ± 0.045
30 | GGAGTTTCGG | 1 ± 0.031
31 | CAATATGTGC | 1.009 ± 0.004
32 | TATCATGGTG | 1.05 ± 0.058
33 | GAATATCTGG | 0.97 ± 0.011
34 | CAGCCAAATA | 1.1 ± 0.029
35 | GCGTGGGGAA | 1.07 ± 0.036
36 | TAATGTGGGA | 0.96651 ± 0.00012
37 | GGAAATTCAT | 1.36 ± 0.54
38 | TTACTTGAAT | 0.969 ± 0.039
39 | ATGGGGGTCA | 0.998 ± 0.015
40 | ACGTTATGCT | 1.17 ± 0.081
41 | CCTGGGTACC | 1.039 ± 0.0072
42 | GAGAAGGGAT | 0.999 ± 0.022
43 | AAATTGGGCG | 0.983 ± 0.021
44 | TTTTGGAGCC | 1.06 ± 0.046
45 | CACCATTAAT | 1.01 ± 0.017
46 | CGGGGGTTAT | 1.03 ± 0.063
47 | TGAATCAGG | 1.01 ± 0.073
48 | AAAGGTGGGT | 1.51 ± 0.86
49 | TGAGGAAGGC | 0.992 ± 0.039
50 | GTGTTCAAGG | 0.971 ± 0.015

Row | Sequence | switch fluorescence ratio
51 | CGGGAGGGAA | 1.02 ± 0.023
52 | GGATTTCGTG | 0.986 ± 0.024
53 | TTTAGGATTG | 0.98 ± 0.034
54 | CGGGCAGAGG | 0.993 ± 0.01
55 | TTTTGGGTAT | 0.985 ± 0.032
56 | TATACAAATT | 0.989 ± 0.043
57 | TAAAATTCGG | 1.01 ± 0.018
58 | ATCATACTGT | 1.007 ± 0.0024
59 | GAAAGCCCGT | 0.989 ± 0.021
60 | GGGTTGCGGA | 0.966 ± 0.035
61 | ACGTGCGGAG | 1.01 ± 0.016
62 | ACTAATTGA | 0.996 ± 0.027
63 | GTGACTTTTA | 1.01 ± 0.035
64 | TTTGAAGCAG | 1.08 ± 0.068
65 | GGGTGCTGCC | 1 ± 0.037
66 | GGCCGAGAGG | 0.993 ± 0.053
67 | ACACGGGGGA | 1.01 ± 0.024
68 | GGTGATGTTA | 0.9786 ± 0.0049
69 | AAAAAGTCTC | 0.9891 ± 0.0092
70 | ACCGGCCCGG | 0.9848 ± 0.0085
71 | TGGGGTGAAC | 1 ± 0.025
72 | CTTATGTATT | 0.993 ± 0.019
73 | GATATCCATG | 0.972 ± 0.014
74 | TTGGTATGAC | 0.988 ± 0.076
75 | GGCCAAGGGA | 1.016 ± 0.0069

Row | Sequence | switch fluorescence ratio
76 | TTGATTTGGT | 1 ± 0.011
77 | ATGTGGGGAC | 1.01 ± 0.084
78 | TGGTGCAGGG | 0.984 ± 0.015
79 | CAGTAATTAT | 0.997 ± 0.02
80 | TTCTCCGGTT | 1.31 ± 0.29
81 | GCATTATTGG | 0.998 ± 0.016
82 | GGGAATAACT | 0.998 ± 0.037
83 | TACGGGGTG | 1.05 ± 0.035
84 | TAACTGCATT | 1.16 ± 0.14
85 | GTTGTGTGGG | 0.985 ± 0.035
86 | ATGTGTAAAG | 0.98 ± 0.017
87 | ATCATAGGGG | 1 ± 0.016
88 | TTTCGAGAGA | 1.02 ± 0.027
89 | AGATCATGAG | 0.9708 ± 0.0079
90 | GAGGGAGGGA | 1.03 ± 0.059
91 | TTCATCGCTG | 1.04 ± 0.053
92 | ATGATATTTG | 1.009 ± 0.006
93 | GCCTTTGCAT | 1.04 ± 0.039
94 | TTAATCCCGT | 1.04 ± 0.048
95 | TACGATTAGT | 0.9995 ± 0.0053
96 | ATGTAACTAT | 1.03 ± 0.021
97 | GCGTGTGGTG | 1.02 ± 0.043
98 | TTTACCACCT | 1.27 ± 0.096
99 | TGACGGGGTA | 1.04 ± 0.12
100 | TAGGGGGCGT | 0.987 ± 0.0032

Row | Sequence | switch fluorescence ratio
101 | CGAAGAGGTT | 0.98936 ± 0.00044
102 | GAAATATTTT | 0.996 ± 0.05
103 | ATAGTCATAC | 1.25 ± 0.099
104 | TATCCTTTTT | 1.03 ± 0.057
105 | CTAGGTAAAC | 1.06 ± 0.012
106 | AGTGGTGTTT | 0.989 ± 0.016
107 | TAGGGATAGT | 0.9986 ± 0.0052
108 | ATTTACAGGT | 1.033 ± 0.0098
109 | TAAATGGA | 1.04 ± 0.039
110 | TCATAGGGTG | 1.03 ± 0.1
111 | GGTGTGATGG | 0.9512 ± 0.0085
112 | ATGGATGTTA | 0.978 ± 0.032
113 | TATAAAAGGA | 1 ± 0.019
114 | AATTAATTCC | 1.07 ± 0.026
115 | GGGTTTATGG | 0.987 ± 0.056
116 | ACGATGAACG | 1.04 ± 0.021
117 | TGTTGTCTTT | 1.03 ± 0.12
118 | CGCTTGTATT | 1.02 ± 0.013
119 | ACTGGATTTG | 0.9885 ± 0.002
120 | AGGTGGTTTT | 1.014 ± 0.0041
121 | TTTCTGTTTC | 1.04 ± 0.052
122 | GGGACTTTTG | 0.986 ± 0.15
123 | TAGCCGCTTT | 1.065 ± 0.0087
124 | CGGGGGGTTC | 1 ± 0.019
125 | GGATATATTG | 1.02 ± 0.024

Row | Sequence | switch fluorescence ratio
126 | TAGCGAAACT | 1.14 ± 0.032
127 | GAGATGTGGT | 0.985 ± 0.031
128 | GAGTGTGTGT | 1.006 ± 0.0053
129 | CAGGTTTCGT | 0.989 ± 0.021
130 | TGGTAGAGTG | 0.987 ± 0.0027
131 | CTATGTTTTG | 0.979 ± 0.017
132 | TAATGGTCGT | 0.989 ± 0.029
133 | GGTACCTTTG | 0.9729 ± 0.009
134 | GTGGGGCATT | 0.9905 ± 0.0086
135 | TTTTAACTGT | 1.01 ± 0.038
136 | GGGGTTGTCT | 1.01 ± 0.072
137 | ATTGATGATT | 0.993 ± 0.0075
138 | CGAGGGGA | 1.018 ± 0.0082
139 | TGGGCAAAAA | 1.01 ± 0.011
140 | AGGGGGGTCG | 0.992 ± 0.072
141 | GATGGGGTTC | 1.01 ± 0.018
142 | TCGATTGGGG | 0.9682 ± 0.0089
143 | TTAACTTGGG | 0.976 ± 0.013
144 | GGTTAATTGG | 0.99 ± 0.047
145 | TGTGACAATA | 1.04 ± 0.01
146 | ATTTATATCT | 1 ± 0.015
147 | CAGCGCCGTT | 1.006 ± 0.004
148 | CACAGGGGGA | 2.67 ± 1.3
149 | ATTTCGGGAG | 1.01 ± 0.052
150 | CGATTTGGAG | 0.995 ± 0.012

Row | Sequence | switch fluorescence ratio
151 | TTTGGTGCGG | 0.985 ± 0.01
152 | AGGAATAAGT | 1.11 ± 0.16
153 | ACACTGCTCG | 1.05 ± 0.011
154 | GATTTGGAGG | 0.97361 ± 7.9e-05
155 | TGCTTGTTAG | 0.989 ± 0.07
156 | TGCCTTGCTT | 1.01 ± 0.023
157 | GGGGATGCAT | 1.01 ± 0.059
158 | ATTTGTATTT | 0.992 ± 0.026
159 | AGTATGAGTC | 1.056 ± 0.01
160 | GTTTTATAAA | 0.9762 ± 0.0028
161 | ACGAGTGTCG | 0.964 ± 0.04
162 | CGCAGGGGGG | 1.09 ± 0.034
163 | GGTGATTTGT | 1 ± 0.03
164 | TGGGGGCGAC | 1 ± 0.057
165 | AAATTACTAG | 1.01 ± 0.048
166 | TTGCGTTTCC | 1.19 ± 0.23
167 | TTTGTATTAG | 1 ± 0.028
168 | ACATTGACGC | 1.08 ± 0.021
169 | AAGTGAAGCT | 1 ± 0.015
170 | TTTGTCAAGG | 1.02 ± 0.015
171 | CAAGGTTTTT | 1.01 ± 0.021
172 | AGGAAAAGGG | 1.14 ± 0.1
173 | GCGTAATCCG | 1.02 ± 0.042
174 | TGGACCGGTC | 0.996 ± 0.01
175 | CTGTTTTTAT | 1.01 ± 0.034

Row | Sequence | switch fluorescence ratio
176 | AGCTTGATTT | 1.01 ± 0.039
177 | CTAAGATAGG | 1.01 ± 0.029
178 | TGGGTAACGG | 0.999 ± 0.0039
179 | ATGAATTCGG | 1.01 ± 0.011
180 | TATTCATCGT | 0.9932 ± 0.0075
181 | CTTGTGGTGT | 0.973 ± 0.019
182 | ATAGGGTACA | 1.11 ± 0.052
183 | TACAGGTCGG | 1 ± 0.033
184 | AGAGTCCCTT | 1 ± 0.036
185 | TTCGGCTCTC | 1.63 ± 0.86
186 | GGATGATGGG | 1.01 ± 0.046
187 | CGGAAAGCG | 1 ± 0.026
188 | GGGTGGTAGG | 1 ± 0.028
189 | AAAAGTTTGC | 1.02 ± 0.056
190 | ATGGGGGGTC | 0.985 ± 0.041
191 | GCATTCAATG | 1.01 ± 0.024
192 | TTTTTAACCT | 1.57 ± 0.36
193 | TAAGGGCCCG | 0.991 ± 0.069
194 | GTGGGAATTT | 0.9823 ± 0.0081
195 | TGGGTGTAGG | 1.007 ± 0.004
196 | TTCATGTGAA | 1 ± 0.04
197 | AACAGGTGGG | 1.24 ± 0.023
198 | GAAGGTAGCA | 1.03 ± 0.041
199 | TGTGTGTAAG | 1.001 ± 0.0067
200 | TTTTAAGGGT | 0.999 ± 0.036
